Here are results for 2 molecules from patent US20250387497A1, “MULTIVALENT MULTISPECIFIC CONJUGATES AND RELATED COMPOSITIONS AND METHODS OF USE” (Purdue Research Foundation, priority 2022, published 2025).

For one test, the system named is normal urothelium. The test is described as follows: P2 binding/uptake in cultured normal urothelium cells, anti-HA immunostaining. It is filed as cell-based. The following applies: different P2 concentrations. How it is done:
(§1) FIGS. 4A and 4B show images of immunostaining with an anti-HA antibody of normal (FIG. 4A) and MB49 wild type cancer (FIG. 4B) cells incubated with the highest concentration of P2 conjugates used.
(§2) Normal (labeled A) and MB49 wild type cancer (labeled B) cells isolated from bladder urothelium were disaggregated and cultured in vitro. Cultured cells were incubated with different concentrations of the P2 MV-MS conjugate and the presence of cell-bound peptide was investigated by immunostaining with an anti-HA antibody using the methodologies described in Example 1.

Test [1] deals with MB49 wild type cancer cells. The test is described as follows: P2 binding in cultured MB49 wild type cancer cells, anti-HA immunostaining. It is filed as cell-based, mouse. The following applies: MB49 wild type cancer cells versus normal urothelium cells. As to the method:
as §1, §2

The subject of another test is MB49 cells. The test can be described thus: Binding and internalization of P1/P2 peptides, anti-HA immunofluorescence, MB49 cells. It is filed as cell-based. The note with it: mouse MB49 cells (LE and WT). As to the method:
(§3) Arrows and arrowheads point to examples of internalized peptide in endosomal and late compartments, respectively.
After five minutes, internalized peptide was localized to peripheral early endosomes (arrowheads) and after 45 minutes accumulated in late endosomes/lysosomes (arrows).
FIGS. 3F-3G show the amount of cell-associated peptide as a function of time as estimated by quantitative microscopy (FIG. 3F) and as a function of dose by quantitative Western blot (FIG. 3G) with anti-HA antibodies (upper panel) followed by band densitometry of triplicates (lower panel).
(§4) The tested conjugates targeted bladder cancer cells and were internalized. See Coon et al. (2012), supra, for description of methodologies. See, e.g., FIGS. 3D and 3E. Given interspecies receptor conservation, the conjugates targeted cells of human, mouse and canine origin (FIG. 3D), and were internalized in GFP-Rab5-positive endosomes (see, e.g., FIG. 3D, mid-panel set) in a time-dependent manner (FIG. 3E).

Another test relates to T24 cells. The test can be described thus: Binding and internalization of P1/P2 peptides, anti-HA immunofluorescence, T24 cells. The following applies: human T24 cells. It is filed as cell-based.
From the text: as §3, §4

The subject of test [2] is cells isolated from spontaneous dog tumors and immortalized. The test is described as follows: Binding and internalization of P1/P2 peptides, anti-HA immunofluorescence, canine bladder tumor cells. It is filed as cell-based.
From the text: as §3, §4

B1: FCGDGFYACYMDVGRAQGKAQGYHWYGYTPQNVIGQAKGQARGVSPPLTLGQLLSG KQAGRQAGKLAKLAKKLAKLAKGQRAGQKAG (peptide)
chain: FCGDGFYACYMDVGRAQGKAQGYHWYGYTPQNVIGQAKGQARGVSPPLTLGQLLSGKQAGRQAGKLAKLAKKLAKLAKGQRAGQKAG
modifications: HA tag; MV-MS conjugate; P2 conjugate sequence: H-E-F-I
On to B1, for which the “binding or uptake to normal urothelium” value in the test with normal urothelium is recorded as “no detectable binding or uptake”. Also, the “selectivity for cancer cells” value in test [1] is “marked selectivity for cancer cells”. The “binding and internalization of peptide” value with MB49 cells was “bound and internalized”; in the test on T24 cells, “bound and internalized”; in test [2], “bound and internalized”.

B2: YHWYGYTPQNVIGRAQGKAQGKLAKLAKKLAKLAKGQAKGQARGFCGDGFYACY MDVGKQAGRQAGVSPPLTLGQLLSGQRAGQKAG (peptide)
chain: YHWYGYTPQNVIGRAQGKAQGKLAKLAKKLAKLAKGQAKGQARGFCGDGFYACYMDVGKQAGRQAGVSPPLTLGQLLSGQRAGQKAG
modifications: HA tag; MV-MS conjugate; P1 conjugate sequence: E-I-H-F
B2: the “binding and internalization of peptide” value is “bound and internalized” with MB49 cells; “bound and internalized” in the test on T24 cells; “bound and internalized” in test [2].
